From patent publication EP4793349A2

Target: cation-independent mannose-6-phosphate receptor (CIMPR)
Assay: CIMPR affinity chromatography of spent culture medium, before AEX capture

- percent able to bind CIMPR: 80%
Substance: recombinant human α-galactosidase A (rhα-Gal A) (from UniProt P06280 32-429) (enzyme)
